# Results published in the DeepSol protein solubility set.
# Assay: soluble on expression in E. coli; label from the status in PepcDB or PDB records
row,Sequence,soluble on expression in E. coli
1,MGSDKIHHHHHHLGFKIEAELLQAMKDLKDSVPASGSERVRNEFIQILLSELPSQGIRRLLELGLLERLIPELMPAIGFDTRSSYHDKDVFEHSLAVLDNTEPNLTLRLAALLHDIDKPNSLTVDEDGEGYCYGHASGGSEIARTILGRLNFDRKTIKAVSAIIKEHMNDFENISELSIKRLIRRVGPDNIDRLFELQLADIKGSKLSSRSPERITKTRNKCFEVLSRREPLTVHDLDISGYDLFSLGYPPGKEIGEAMDYLLDQVINNPSLNQRDTLIALLMNQ,not soluble
2,MGSDKIHHHHHHMFQTLDHFLKSWEFEADATQKLLNSLTDESLKQEITSQNWTLGRIAWHTVAAIGIITSNTDLTFQAPAEDYPVPTSAQFIADSYHQASNAFVQALKTQWTDHTLQERINFIGQQMPNGSLLMFLIQHQNHHRGQMTVLMRQAGLTVPGIYGPAKEEWAKFGLEAPKM,not soluble
3,MEIPSYASNIQPYGSQSGTKIASENDNAKSVSLSGDNSRSVSRTDKLSEHFSEQVRARQQESAETAMAQAKQRQRLNEEQLAKMVEQMNEFVKSINKGLSFRLDRESGREVVTIYEASTGDIIRQIPEEEMLEVLRRLAREQDHRSGLLMAKV,not soluble
4,SLESYTVNRGKGVTRYDICQLPSNSPIEDDRAEEIVQVPILQDNNIKTSTDWMFFGVFDGHGGWTTSSKLRDQLIGYVINELGTIYKPVQGEENLRYVPNSATIDQAMKNGFLKLDHELVNKNIEKLLTDGNKAKAAELLMPALSGSCALLSFYDTNSQMLKVAVTGDSRAILGSFKDNHWTVRQLSIDQTGANPSEVARIISEHPNEPKVIRNGRVLGSLEPTRAFGDCRYKLPAVIQERIYKQFFGRPLPNQLKSPPYVTAEPIITTTKINPNEHDFLVMASDGLYEMLTNEEIVGLVVKWMEKADMIKPRKSWFGFGSADSKLPEVKDVTNDKALKKPLNNKLGNSFLLEDNNVSTHLIRNALSNGGSREQTSMLISIPNPVSRRYRDDLTVTVVFFGKDTKGEDENGTLEVNWNATAG,soluble
5,MGHHHHHHSHGQSLIVLQNVGGGEAGPQEMSGVQLQPLRPAPEVTTVQLQPAQEVTTVQLQPAQEVTTVQLQPAQEVTTVQLQPVAGQLSNSSGGAVATEAPNLLVVQSGAAEELLTGPGPGEAGDGEASTGVVQDVLFETLQTDEGLQSVLVLSGADGEQTRLCVQEVETLPPGLTEPPATGPPGQKLLIIRSAPATELLDSSNTWRRHRPRCNFLAPPAV,not soluble
6,MGSDKIHHHHHHADNAPAKVQTALKKMYPKADGIAWSQDGGYYCADFMMNGYEKNVWFNAQGQWQMTQTEWGDTDELSATVYNAYASGPYSGWQVEDVTYVEFPKWQPIIVIKVGQQNVDIQYQLFYSPNGTLLRTRNVSYMGDILGPGTFL,not soluble
7,MSKKVLIITGDAVEALEVYYPYYRLLEEGHDVTIAAPKKKKLHTVVHDFADWDTYVEKQGYLIDAHASFAEVDPAQYDALVIPGGRAPEYIRLDENVQRIVRHFFEANKPIAAICHASLIFETMPDLLKGRSLTAYIACKPGVEALGATYVSDNTVHVDGNLVSAHAWPDLPAFMREFLRLLQ,soluble
8,MGSDKIHHHHHHMNIIIIGAQASGKMTIGQEIAKQTGMTLFHNHDSIDFVLRFMPWSPDSIALTESIRFKFFETFAKTGQEMIFTIVIDFNDSRDVVFLEKIQIVFQSHNQEVLFVELETELSERLKRNRTENRLKHKPSKRDIKWSESDICSTMDYAIFNPEVAPEALTYYHKINNTCLTATETAYLIIQKINQIKEKN,not soluble
9,MSLKDSEVTVLGAGVAGLAVARALALRGAEVTVLEQAEAIREVGAGLQISPNGAAVLRALGLGDALEAASMRAQAVELRNGVGGDLVLKLDLARLRPGQGYHLMHRADLIDLLAQGAREAGVQIRLLQKIEAVDLGGPRPRLVTAQGAEYAPNLLIGADGLHSLVRAELNGPAQPFFTNQVAWRTVIPATPGEPVVAEVHMGEGRHLVSYPMRGGTVRNIVAVEERKRWVQEGWNLRDDPVDLRLAFAGFNGRVRHWLEQVPDVWLWGLFRHPVAHTWYRGHAAILGDAAHPTLPFLAQGANMALEDAWVLAECLARHSNIKGGLADYQARRVPRCCRVVQAANNNAWAYHLRSPIREIAHLGLRLGSRLLPGPTLRRFDWLYGYDVTAASLEHHHHHH,soluble
10,MGMIIMVGDGMGPAYTSAYRYFQDNPDTEEIEQTVFDRLLVGMASTYPARESGYVTDSAASATALATGFKSYNGAIAVDINKRPLTTIMQMAKARGMSTGVAVTAQVNHATPAAFLTHNESRKNYEAIAADMLKSDADVILGGGRKYFSEALVSQFSAKGYQHITELAQLDSITQPKVLGLFAEVQLPWVIDDTDANTLSKLTQKSLDLLSQNEKGFVLLVEGSLIDWAGHNNDIATAMAEMQGFANAIEVVEQYIRQHPDTLLVVTADHNTGGLSIGANGEYQWDTKLPKGISASPASIATHAIAADDWQAGVNQQLGFDVNSTELQQLTNARMQGKSTLEVALKKIIDTRSYTGWTTSGHTGVDVQVFAMGPAADLFKGNQDNTHIAEKMMSLLPKVN,soluble
11,HETLTSPPLREGRYIMAVTGCGPVEGVKEDGAFAFRGIPYAKPPVDRLRWKPAELIDDINMCWNDTLQTHNSSVVCTQRLGNGTTVGDEDCLYLDVVTPHVRYNNPLPVVVLIGAESLAGPSPGILRPSARYSRSHDVIFVRPNFRLGVFGFLALDALTKEAHPPTSGNYALTDIIAVLNWIKLNIVHFGGDPQSVTLLGHRAGATLVTLLVNSQKVKGLYTRAWASSGSAILPGKPLSESGKQNEQLMATLECADIQCLREASSERLWAATPDTWLHFPVDLPQPQEANASGSRHEWLVLDGDVVFEHPSDTWKREQANDKPVLVMGATAHEAHTEKLRELHANWTREEVRAYLENSQIGALGLTDEVIEKYNASSYASLVSIISDIRSVCPLLTNARQQPSVPFYVVTQGEGPDQLATVDADVQAILGRYEPHTVEQRRFVSAMQQLFYYYVSHGTVQSFVQNRRVINVGQDAQPEEDYLPCNYWISKDIVPRYARVD,soluble
12,YMYKKYDILKGDKSERVLDRRFITNLCMNGVPMGLQYSITAIGSTILQAAVNTLGSTYVAAMTAGSKMFNFTCCPFDALGSTMATYAGQNVGAAKIKRLGQGVR,not soluble
13,MGSDKIHHHHHHMDKSIKSNAEKFIMIYNEIDRYMRKVLDENERTGNADLVKKMAKRNKVFEEYKDELMLFARLRNSIVHNPYNAELDPIAEPHDKIIVKYGELRDKILNPPLALDTIAVKGKNIYVVTQNESVLDVMTVMKDNNYANVPVVDNLGMIVGVFSKNTVFSYMVENEGVQIRRDTKINDFKEFIPLHKHENEFFAFVSRKTLAVEIEDMFKKRIHGKKKLSLVFITETGRVKEKILGIVTPWDIAIN,not soluble
14,STSSDPQSHNVFVYGSILEPAVAAVILDRTADTVPAVLHGYHRYKLKGLPYPCIVSSDSGKVNGKVITGVSDAELNNFDVIEGNDYERVTVEVVRMDNSEKVKVETYVWVNKDDPRMYGEWDFEEWRVVHAEKFVETFRKMLEWNKNPNGKSMEEAVGSLLSSGD,soluble
15,MGHHHHHHSHMVTPVTWMDNPIEVYVNDSVWVPGPTDDHCPAKPEEEGMMINISIGYHYPPICLGRAPGCLMPAVQNWLVEVPTVSPISRFTYHMVSGMSLRPRVNYLQDFSYQRSLKFRPKGKPCPKEIPKGSKNTEVLVWEECVANSAVILQNSEFGTIID,not soluble
16,MGGGGGGMEQFNAFKSLLKKHYEKTIGFHDKYIKDINRFVFKNNVLLILLENEFARNSLNDNSEIIHLAESLYEGIKSVNFVNEQDFFFNLAKLEENSRDTLYQNSG,soluble
17,GPGSMVAKQHFLAAVKMTPARGAAAALSPPQTAEVVGRTAAGGKGCSGSFVDRRLENVMARAREMGWTSPESLIESLKAAQWHSHGKTPAIAEAEAAALPSPHVPAFKPDALSSSSDRHAQPRLPQPRDETPHQARKGAAVSGANSSITECWSGHGPVSQQPHTPHQGADACRAFPSSRTESADSAMRVEATRVLCSGGAAHAGLPSESLLSPPAAESSRVAGTGHAYPPAPLQGHEGLVSSGLTNPLTRLTMPTSATAGAAAAQPLIELEQELVKLRHLVRTLESKQFVHAHQSSAQASELQAQCAELQHQQLAQAKELRLALARLISVGNELEGLRDVKTHLQMQLTASQQESARLRDALLMGETRARDVQ,not soluble
18,MSLGKRIFVFDTTLRDGEQVPGCQLNTEEKIIVAKALDELGVDVIEAGFPVSSPGDFNSVVEITKAVTRPTICALTRAKEADINIAGEALRFAKRSRIHTGIGSSDIHIEHKLRSTRENILEMAVAAVKQAKKVVHEVEFFCEDAGRADQAFLARMVEAVIEAGADVVNIPDTTGYMLPWQYGERIKYLMDNVSNIDKAILSAHCHNDLGLATANSLAALQNGARQVECTINGIGERAGNTALEEVVMAMECHKETLGLETGINHKKLVPISHLVSTLMRMQVQSNKAIVGRNAFAHSSGIHQDGFLKHRETYEIIDPAAVGADSSSIILTARSGRAALNHRLATIGYMLSKDQLDQAYTQFLDMADHLRKVEDENLHELMRGKVYAKEGHHHHHH,soluble
19,NQKDFDRTMVIDERTELVARTITDYLKRTNPMDKTIVFCNDIDHAERMRRALVNLNPEQVKKNDKYVMKITGDDEIGKAQLDNFINPKKPYPVIATTSELMTTGVDAKTCKLVVLDQNIQSMTKFKQIIGRGTRIDERYGKLWFTILDFKKATELFADERFDGIPEKVMDTTPEDIAD,not soluble
20,MKELDKIDFRILKILQQNARIPMTELAEKVGLSTTPVTERVRRLEREHYISGYHAHLNPHLLGKPLLVFVELKLQSKSGNIFEDFKKEVLKIPQIMECHLVSGEYDYLIKVRLPDMSAYRDMLGNILLQLPAASESRSYVVMEEVKENPVLDLD,soluble
21,MAKTYDYLFKLLLIGDSGVGKTCVLFRFSDDSFNNSFISTIGIDFKIRTIELDGKKIKLQIWDTAGQERFRTITTAYYRGAMGIILVYDITNERSFENIKNWIRNIEEHAASDVERMIIGNKCDIEERREVSRDRGEQLAIEYGTKFLETSAKANLNIDEAFFTLARDIKSKMEQNEMRAGGSVSNTGRVNVGGSGTQKKSFFSNWSCNLL,not soluble
22,MLQDHKITFLGAGSMAESIIAGLLSKKLLLPSQVIATNLCDEAKLTKLEDRYGICTTQNRQEAVRQGTIIFLAMKPKNIEEAIEEIRGEITEKQLFISVLAGTTTSYIETLLAHEVPVVRTMPNTSAKVGASATGLCGGRYANASHVKLATLIFTAIGTVTEVTEDKLDAVTGLAGSGPAYFYYMVEAMERAAVQSGLTESEAKAFISQTLIGTGKRLEQTSKTAEELYKEVMSPGGTTEAGLRVLEQQQMQQAIEEAITAAINRSRELGSTPSLEIKKLEHHHHHH,soluble
23,SMTTLFSKIKEVTELAAVSGHEAPVRAYLREKLTPHVDEVVTDGLGGIFGIKHSEAVDAPRVLVASHMDEVGFMVSEIKPDGTFRVVEIGGWNPMVVSSQRFKLLTRDGHEIPVISGSVPPHLTRGKGGPTMPAIADIVFDGGFADKAEAESFGIRPGDTIVPDSSAILTANEKNIISKAWDNRYGVLMVSELAEALSGQKLGNELYLGSNVQEEVGLRGAHTSTTKFDPEVFLAVDCSPAGDVYGGQGKIGDGTLIRFYDPGHLLLPGMKDFLLTTAEEAGIKYQYYCGKGGTDAGAAHLKNGGVPSTTIGVCARYIHSHQTLYAMDDFLEAQAFLQALVKKLDRSTVDLIKHY,soluble
24,MGSDKIHHHHHHMTMTFALRDPAQVLARALELRVDVSPETAEVEHELGALHDRMRRPGDRLHDMPHMPSGLPGLRLRYREADGEIFVYVEDVASRQLAGYTVFNRLIEVGRRADPWVRSPHTKFAPPYQRLGLASGLYRWALDGGLCLLSGARQSAGAHALWQSLGRRYALGYVDLRYKTLTSLGEQVSAVVKDDLHTRMLLLGHGWTLGRFKEATGMY,not soluble
